# Source: the supplement of paper PMC11246515
# ± gives the standard deviation of the averaged measurements.
# Assay: total protein half-life in vivo (active degradation + dilution); higher = more stable protein
# [1] = E. coli NCM3722 delta-clpP delta-lon delta-hslV, growth: N-lim chemostat, doubling time 6 h
# [2] = wild type E. coli NCM3722, growth: C-lim chemostat, doubling time 3 h
# [3] = wild type E. coli NCM3722, growth: C-lim chemostat, doubling time 6 h
# [4] = wild type E. coli NCM3722, growth: C-lim chemostat, doubling time 12 h
# [5] = wild type E. coli NCM3722, growth: N-lim chemostat, doubling time 12 h
# [6] = wild type E. coli NCM3722, growth: P-lim chemostat, doubling time 12 h
# [7] = E. coli NCM3722 delta-clpP, growth: N-lim chemostat, doubling time 6 h
# [8] = E. coli NCM3722 delta-hslV, growth: N-lim chemostat, doubling time 6 h
# [9] = E. coli NCM3722 delta-lon, growth: N-lim chemostat, doubling time 6 h
# [10] = wild type E. coli NCM3722, growth: N-lim chemostat, doubling time 6 h
# [11] = E. coli NCM3722 delta-smpB, growth: N-lim chemostat, doubling time 6 h
# [12] = wild type E. coli NCM3722, growth: P-lim chemostat, doubling time 6 h
Sequence,total protein half-life in vivo [1] [h],total protein half-life in vivo [2] [h],total protein half-life in vivo [3] [h],total protein half-life in vivo [4] [h],total protein half-life in vivo [5] [h],total protein half-life in vivo [6] [h],total protein half-life in vivo [7] [h],total protein half-life in vivo [8] [h],total protein half-life in vivo [9] [h],total protein half-life in vivo [10] [h],total protein half-life in vivo [11] [h],total protein half-life in vivo [12] [h]
MKRLRNKMTTEELAECLGVAKQTVNRWIREKGWKTEKFPGVKGGRARLILVDTQVCEFIQNTPAFHNTPMLMEAEERIAEYAPGARAPAYRQIINAIDNMTDIEQEKVAQFLSREGIRNFLARLDIDESA,6.16 ± 0.29,2.58 ± 0.081,4.56,7.65 ± 1,4.62,4.26,,,,,,
MGDIMRPIPFEELLTRIFDEYQQQRSIFGIPEQQFYSPVKGKTVSVFGETCATPVGPAAGPHTQLAQNIVTSWLTGGRFIELKTVQILDRLELEKPCIDAEDECFNTEWSTEFTLLKAWDEYLKAWFALHLLEAMFQPSDSGKSFIFNMSVGYNLEGIKQPPMQQFIDNMMDASDHPKFAQYRDTLNKLLQDDAFLARHGLQEKRESLQALPARIPTSMVHGVTLSTMHGCPPHEIEAICRYMLEEKGLNTFVKLNPTLLGYARVREILDVCGFGYIGLKEESFDHDLKLTQALEMLERLMALAKEKSLGFGVKLTNTLGTINNKGALPGEEMYMSGRALFPLSINVAAVLSRAFDGKLPISYSGGASQLTIRDIFDTGIRPITMATDLLKPGGYLRLSACMRELEGSDAWGLDHVDVERLNRLAADALTMEYTQKHWKPEERIEVAEDLPLTDCYVAPCVTACAIKQDIPEYIRLLGEHRYADALELIYQRNALPAITGHICDHQCQYNCTRLDYDSALNIRELKKVALEKGWDEYKQRWHKPAGSGSRHPVAVIGAGPAGLAAGYFLARAGHPVTLFEREANAGGVVKNIIPQFRIPAELIQHDIDFVAAHGVKFEYGCSPDLTIEQLKNQGFHYVLIATGTDKNSGVKLAGDNQNVWKSLPFLREYNKGTALKLGKHVVVVGAGNTAMDCARAALRVPGVEKATIVYRRSLQEMPAWREEYEEALHDGVEFRFLNNPERFDADGTLTLRVMSLGEPDEKGRRRPVETNETVTLLVDSLITAIGEQQDTEALNAMGVPLDKNGWPDVDHNGETRLTDVFMIGDVQRGPSSIVAAVGTARRATDAILSRENIRSHQNDKYWNNVNPAEIYQRKGDISITLVNSDDRDAFVAQEAARCLECNYVCSKCVDVCPNRANVSIAVPGFQNRFQTLHLDAYCNECGNCAQFCPWNGKPYKDKITVFSLAQDFDNSSNPGFLVEDCRVRVRLNNQSWVLNIDSKGQFNNVPPELNDMCRIISHVHQHHHYLLGRVEV,6.26 ± 1.4,2.86 ± 0.32,6.06,,,,5.57,5.57,6.62,6.49,,
MSQTSTLKGQCIAEFLGTGLLIFFGVGCVAALKVAGASFGQWEISVIWGLGVAMAIYLTAGVSGAHLNPAVTIALWLFACFDKRKVIPFIVSQVAGAFCAAALVYGLYYNLFFDFEQTHHIVRGSVESVDLAGTFSTYPNPHINFVQAFAVEMVITAILMGLILALTDDGNGVPRGPLAPLLIGLLIAVIGASMGPLTGFAMNPARDFGPKVFAWLAGWGNVAFTGGRDIPYFLVPLFGPIVGAIVGAFAYRKLIGRHLPCDICVVEEKETTTPSEQKASL [P0AER0],,2.07,4.17,6.363 ± 0.04,,,,,,,,
MTITDLVLILFIAALLAFAIYDQFIMPRRNGPTLLAIPLLRRGRIDSVIFVGLIVILIYNNVTNHGALITTWLLSALALMGFYIFWIRVPKIIFKQKGFFFANVWIEYSRIKAMNLSEDGVLVMQLEQRRLLIRVRNIDDLEKIYKLLVSTQ,7.14,2.77 ± 0.15,4.79,,8.94,,7.25,6.58,,5.6,6.13 ± 0.82,
MIEFKNVSKHFGPTQVLHNIDLNIAQGEVVVIIGPSGSGKSTLLRCINKLEEITSGDLIVDGLKVNDPKVDERLIRQEAGMVFQQFYLFPHLTALENVMFGPLRVRGANKEEAEKLARELLAKVGLAERAHHYPSELSGGQQQRVAIARALAVKPKMMLFDEPTSALDPELRHEVLKVMQDLAEEGMTMVIVTHEIGFAEKVASRLIFIDKGRIAEDGNPQVLIKNPPSQRLQEFLQHVS,6.81 ± 0.9,2.93 ± 0.62,4.88 ± 1.6,11.9 ± 0.78,11.5 ± 0.64,12.5 ± 0.99,5.7293 ± 0.0055,5.292 ± 0.039,5.12 ± 0.18,6.79,5.72 ± 0.6,5.25
MMEQSLIPQTPVLPLTAQRTVKRALTLLDRHLRETGVAFTSTQAARDWLKLKMAGLEREEFMMLYLNQQNQLIAHETLFAGSISSTEVHPREVVKRALYFNAAAVILAHNHPSGDTTPSQADKTITQRLVQALQLVDIRVPDHLIVGGRQIYSFAEHGLL,,,,,8.33,10.4,,,,,,
MLSIFKPAPHKARLPAAEIDPTYRRLRWQIFLGIFFGYAAYYLVRKNFALAMPYLVEQGFSRGDLGFALSGISIAYGFSKFIMGSVSDRSNPRVFLPAGLILAAAVMLFMGFVPWATSSIAVMFVLLFLCGWFQGMGWPPCGRTMVHWWSQKERGGIVSVWNCAHNVGGGIPPLLFLLGMAWFNDWHAALYMPAFCAILVALFAFAMMRDTPQSCGLPPIEEYKNDYPDDYNEKAEQELTAKQIFMQYVLPNKLLWYIAIANVFVYLLRYGILDWSPTYLKEVKHFALDKSSWAYFLYEYAGIPGTLLCGWMSDKVFRGNRGATGVFFMTLVTIATIVYWMNPAGNPTVDMICMIVIGFLIYGPVMLIGLHALELAPKKAAGTAAGFTGLFGYLGGSVAASAIVGYTVDFFGWDGGFMVMIGGSILAVILLIVVMIGEKRRHEQLLQERNGG,,,6.02 ± 0.41,11.8 ± 1.2,,,,,,,,
MIPEKRIIRRIQSGGCAIHCQDCSISQLCIPFTLNEHELDQLDNIIERKKPIQKGQTLFKAGDELKSLYAIRSGTIKSYTITEQGDEQITGFHLAGDLVGFDAIGSGHHPSFAQALETSMVCEIPFETLDDLSGKMPNLRQQMMRLMSGEIKGDQDMILLLSKKNAEERLAAFIYNLSRRFAQRGFSPREFRLTMTRGDIGNYLGLTVETISRLLGRFQKSGMLAVKGKYITIENNDALAQLAGHTRNVA [P0A9E5],4.34 ± 0.13,1.23 ± 0.064,1.708 ± 0.0036,2.2 ± 0.069,1.68 ± 0.09,2.37 ± 0.86,2.99 ± 0.00054,1.2 ± 0.057,1.4 ± 0.028,1.35 ± 0.091,1.24 ± 0.03,1.65 ± 0.039
